According to article PMC3098264, “Crystal Structure of the PAC1R Extracellular Domain Unifies a Consensus Fold for Hormone Recognition by Class B G-Protein Coupled Receptors” (PLoS ONE, 2011):

B1: un-labeled PACAP (15–31) [not stated] / MBP-PAC1R (25–140)-His6 [human] (parent complex)
chain 1: KQMAVKKYLAAVLGKRY
chain 2: CIFKKEQAMCLEKIQRANELMGFNDSSPGCPGMWDNITCWKPAHVGEMVLVSCPELFRIFNPDQDMGVVSRNCTEDGWSEPFPHYFDACGFDEYESETGDQDYYYLSVKALYTVGY

Variants of: B1
Experiment: competitive AlphaScreen; Competing peptide 150uM; residual signal after competition, higher counts = weaker competition by the mutant peptide; read off a plot
Work on chain 1 KQMAVKKALAAVLGKRY [chain 1 Y8A] yielded a response of about 1500 Photon Counts. chain 1 KQMAVKKYAAAVLGKRY [chain 1 L9A] gave a response of about 1100 Photon Counts. Work on chain 1 KQMAAKKYLAAVLGKRY [chain 1 V5A] yielded a response of about 17000 Photon Counts. With chain 1 KQAAVKKYLAAVLGKRY [chain 1 M3A] the response was about 5100 Photon Counts. Variant chain 1 KQMAVKKYLAAALGKRY [chain 1 V12A] has a response of about 6300 Photon Counts. Variant chain 1 KQMAVKKYLAAVLGARY [chain 1 K15A] has a response of about 3800 Photon Counts. chain 1 KAMAVKKYLAAVLGKRY [chain 1 Q2A] showed a response of about 1900 Photon Counts. Work on chain 1 KQMAVAKYLAAVLGKRY [chain 1 K6A] yielded a response of about 34000 Photon Counts. With chain 1 KQMAVKKYLAAVLGKAY [chain 1 R16A] the response was about 2700 Photon Counts. chain 1 AQMAVKKYLAAVLGKRY [chain 1 K1A] showed a response of about 1800 Photon Counts. Variant chain 1 KQMAVKKYLAAVLGKRA [chain 1 Y17A] has a response of about 2700 Photon Counts. Work on chain 1 KQMAVKKYLAAVAGKRY [chain 1 L13A] yielded a response of about 26000 Photon Counts. chain 1 KQMAVKAYLAAVLGKRY [chain 1 K7A] gave a response of about 2900 Photon Counts.
